The results in this text go back to US20190381162A1 (INTEGRATED BIOTHERAPEUTICS, published 2019).

Assay [1] has as its target T1, thermolysin-cleaved GP (GPCL) (Ebola virus (EBOV), UniProt Q05320 33-190; Q05320 502-650).
T1 sequence 1: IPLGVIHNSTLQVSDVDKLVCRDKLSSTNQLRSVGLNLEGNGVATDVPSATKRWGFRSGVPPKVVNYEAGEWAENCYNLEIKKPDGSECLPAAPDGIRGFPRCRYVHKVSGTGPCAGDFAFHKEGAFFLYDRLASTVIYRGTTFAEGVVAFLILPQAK
T1 sequence 2: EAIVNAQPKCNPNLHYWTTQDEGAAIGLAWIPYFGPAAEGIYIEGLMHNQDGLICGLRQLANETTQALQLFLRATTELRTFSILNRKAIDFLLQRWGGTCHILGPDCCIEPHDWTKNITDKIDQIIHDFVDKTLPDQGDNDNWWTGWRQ
Put plainly: ELISA.

For assay [2], the target named is T1, thermolysin-cleaved GP (GPCL). Put plainly: biolayer interferometry.
In assay [3] the target is T2, Ebola virus (EBOV) glycoprotein (GP), wild-type, construct not stated (Ebola virus (EBOV), UniProt Q05320 33-650).
T2 sequence: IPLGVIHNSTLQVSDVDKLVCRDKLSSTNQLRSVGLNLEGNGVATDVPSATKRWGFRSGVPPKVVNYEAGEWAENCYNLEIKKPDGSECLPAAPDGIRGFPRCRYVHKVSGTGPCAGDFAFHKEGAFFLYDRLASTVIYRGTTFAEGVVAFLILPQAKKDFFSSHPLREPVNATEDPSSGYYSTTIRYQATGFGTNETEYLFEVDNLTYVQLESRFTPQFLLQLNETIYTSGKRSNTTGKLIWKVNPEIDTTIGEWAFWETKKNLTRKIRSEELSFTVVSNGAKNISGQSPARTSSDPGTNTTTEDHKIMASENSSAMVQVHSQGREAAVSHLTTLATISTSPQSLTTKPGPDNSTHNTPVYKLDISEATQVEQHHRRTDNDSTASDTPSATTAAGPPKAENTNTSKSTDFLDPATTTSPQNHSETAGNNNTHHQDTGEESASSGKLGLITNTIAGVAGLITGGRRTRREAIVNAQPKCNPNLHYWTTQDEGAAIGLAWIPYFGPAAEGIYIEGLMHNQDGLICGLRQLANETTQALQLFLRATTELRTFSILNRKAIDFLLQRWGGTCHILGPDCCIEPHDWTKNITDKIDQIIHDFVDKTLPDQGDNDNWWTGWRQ
Put plainly: cell-based or functional assay.

B1: CA45 (antibody, V domains shown)
VH: QVQLQEWGEGLVKPSETLSLTCAVYGGSISGYYHWNWIRLPPGKGLEWIGNIDNSASTNYNPSLKTRVTISKDTSKNQISLKVRSLTAADTAVYYCARDPGFTIFGVVITSWSGLDSWGQGAVVTVSS
VL: DIQMTQSPSSLSASVGDTVTITCRASQSISNNLAWYQQRPRRAPQLLIYAASNLASGVPSRFSGSGSGTDFTLTISSLQAEDFAAYYCQQHNTLPLTFGGGTKVEI
B1: it took 0.06 nM to reach a half-maximal effect in assay [1] (EC50). In assay [2], the Kd (in general, the constant that tells how readily two partners part at equilibrium) is less than 0.006 nM; the koff – broadly, the rate constant with which the complex falls apart – is less than 1e-07 s⁻¹; the kon (as a rule, the second-order rate constant of association) was 16000 M⁻¹ s⁻¹.

B2: m8C4 (antibody, V domains shown)
VH: EVQLQESGPELKKPGETVKISCKASGYTFTTYGMSWVKQAPGKGLKWMGRINTYSGVPTYADEFKGRFAFSLENSASTAYLQINNLKNEDTATYFCARGDGGHWFANWGQGTLVTVSA
VL: DIQMTQSPSSLSASLGGKVTITCKASQDINKNIAWYQHKPGKGPRLLIWYKSALQPGIPSRFSGSGSGRDYSFSISNLEPEDIATYSCLQYDNLPPTFGGGTKLEIKR
Regarding B2, the “EC50 of neutralization of luciferase-expressing VSV pseudotype on Vero cells” value in assay [3] was greater than 10 µg/mL.
